Molecular target: T1, colicin E3 (Escherichia coli) (UniProt P00646)
T1 sequence: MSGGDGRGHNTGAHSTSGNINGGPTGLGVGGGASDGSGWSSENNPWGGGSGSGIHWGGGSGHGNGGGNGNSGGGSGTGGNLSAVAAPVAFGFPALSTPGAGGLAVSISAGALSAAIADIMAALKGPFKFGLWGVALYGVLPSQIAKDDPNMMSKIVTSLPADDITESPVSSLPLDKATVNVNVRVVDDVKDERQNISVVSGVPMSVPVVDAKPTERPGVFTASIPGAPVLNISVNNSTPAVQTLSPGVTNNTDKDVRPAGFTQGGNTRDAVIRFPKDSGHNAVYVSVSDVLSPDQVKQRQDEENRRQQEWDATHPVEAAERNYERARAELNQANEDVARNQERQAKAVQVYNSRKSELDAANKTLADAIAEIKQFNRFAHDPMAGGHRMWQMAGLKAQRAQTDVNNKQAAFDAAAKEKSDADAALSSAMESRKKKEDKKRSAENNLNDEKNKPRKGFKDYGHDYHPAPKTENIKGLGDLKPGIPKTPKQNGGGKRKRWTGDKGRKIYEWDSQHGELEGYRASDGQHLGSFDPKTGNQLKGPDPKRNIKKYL

B1: E3 immunity protein, co-expressed with colicin E3 in CFPS (natural protein)
chain: MGLKLDLTWFDKSTEDFKGEEYSKDFGDDGSVMESLGVPFKDNVNNGCFDVIAEWVPLLQPYFNHQIDISDNEYFVSFDYRDGDW
  effective multiplicity m = -ln(S/S0) of cell killing of K361 indicator cells by 250 ng/mL colicin E3 co-expressed with the immunity protein: 13.5
